In US20240174727A1, “LONG-ACTING NATRIURETIC PEPTIDES AND USES THEREOF” (Eli Lilly and Company, priority 2022, published 2024):
Numbered stars: 1 amine (or outer) side, 2 acyl side, 3 side chain; on linkers, the order of the positions; unused ones are H or OH. Bridge positions count the residues as written; N and C are the ends. Square brackets hold non-standard residues; d marks the D form. * marks the point of attachment. C20 diacid = O=C(O)CCCCCCCCCCCCCCCCCCC(=O)*; γGlu = O=C(O)[C@H](CCC(=O)[*:2])N[*:1]; 4Pal = N[C@@H](Cc1ccncc1)C(=O)O

T1: human NPRA (human, UniProt P16066 33-1061)
T1 sequence (looked up): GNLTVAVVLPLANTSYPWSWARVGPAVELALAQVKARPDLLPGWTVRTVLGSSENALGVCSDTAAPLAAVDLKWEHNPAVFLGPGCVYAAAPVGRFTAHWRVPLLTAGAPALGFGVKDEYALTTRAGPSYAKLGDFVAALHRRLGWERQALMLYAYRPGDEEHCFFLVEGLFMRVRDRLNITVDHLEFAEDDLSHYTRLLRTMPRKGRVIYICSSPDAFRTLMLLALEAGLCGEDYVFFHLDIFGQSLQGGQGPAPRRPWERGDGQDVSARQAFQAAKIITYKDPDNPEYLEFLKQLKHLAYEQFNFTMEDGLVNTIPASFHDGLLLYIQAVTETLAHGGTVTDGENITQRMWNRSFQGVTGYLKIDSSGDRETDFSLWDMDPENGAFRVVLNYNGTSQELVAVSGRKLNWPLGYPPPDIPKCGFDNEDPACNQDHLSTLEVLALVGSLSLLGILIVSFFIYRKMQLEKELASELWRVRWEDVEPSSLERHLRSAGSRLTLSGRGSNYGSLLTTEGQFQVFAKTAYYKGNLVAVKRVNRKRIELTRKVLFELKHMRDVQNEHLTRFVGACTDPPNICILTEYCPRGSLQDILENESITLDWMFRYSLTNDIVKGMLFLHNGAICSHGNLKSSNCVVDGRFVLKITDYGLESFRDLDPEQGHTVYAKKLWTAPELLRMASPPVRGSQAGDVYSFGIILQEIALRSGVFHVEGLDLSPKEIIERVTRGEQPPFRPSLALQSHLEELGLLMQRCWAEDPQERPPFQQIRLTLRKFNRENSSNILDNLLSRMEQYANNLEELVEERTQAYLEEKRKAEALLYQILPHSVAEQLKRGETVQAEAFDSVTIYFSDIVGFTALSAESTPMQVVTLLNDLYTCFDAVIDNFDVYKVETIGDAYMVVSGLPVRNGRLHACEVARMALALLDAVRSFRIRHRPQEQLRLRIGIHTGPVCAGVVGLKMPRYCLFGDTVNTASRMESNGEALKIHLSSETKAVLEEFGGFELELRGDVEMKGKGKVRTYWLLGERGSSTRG

T2: human NPRA (human, UniProt P16066 33-1061)
T2 sequence (looked up): T1 sequence (looked up)

T3: rat NPRA (rat, UniProt P18910 29-1057)
T3 sequence (looked up): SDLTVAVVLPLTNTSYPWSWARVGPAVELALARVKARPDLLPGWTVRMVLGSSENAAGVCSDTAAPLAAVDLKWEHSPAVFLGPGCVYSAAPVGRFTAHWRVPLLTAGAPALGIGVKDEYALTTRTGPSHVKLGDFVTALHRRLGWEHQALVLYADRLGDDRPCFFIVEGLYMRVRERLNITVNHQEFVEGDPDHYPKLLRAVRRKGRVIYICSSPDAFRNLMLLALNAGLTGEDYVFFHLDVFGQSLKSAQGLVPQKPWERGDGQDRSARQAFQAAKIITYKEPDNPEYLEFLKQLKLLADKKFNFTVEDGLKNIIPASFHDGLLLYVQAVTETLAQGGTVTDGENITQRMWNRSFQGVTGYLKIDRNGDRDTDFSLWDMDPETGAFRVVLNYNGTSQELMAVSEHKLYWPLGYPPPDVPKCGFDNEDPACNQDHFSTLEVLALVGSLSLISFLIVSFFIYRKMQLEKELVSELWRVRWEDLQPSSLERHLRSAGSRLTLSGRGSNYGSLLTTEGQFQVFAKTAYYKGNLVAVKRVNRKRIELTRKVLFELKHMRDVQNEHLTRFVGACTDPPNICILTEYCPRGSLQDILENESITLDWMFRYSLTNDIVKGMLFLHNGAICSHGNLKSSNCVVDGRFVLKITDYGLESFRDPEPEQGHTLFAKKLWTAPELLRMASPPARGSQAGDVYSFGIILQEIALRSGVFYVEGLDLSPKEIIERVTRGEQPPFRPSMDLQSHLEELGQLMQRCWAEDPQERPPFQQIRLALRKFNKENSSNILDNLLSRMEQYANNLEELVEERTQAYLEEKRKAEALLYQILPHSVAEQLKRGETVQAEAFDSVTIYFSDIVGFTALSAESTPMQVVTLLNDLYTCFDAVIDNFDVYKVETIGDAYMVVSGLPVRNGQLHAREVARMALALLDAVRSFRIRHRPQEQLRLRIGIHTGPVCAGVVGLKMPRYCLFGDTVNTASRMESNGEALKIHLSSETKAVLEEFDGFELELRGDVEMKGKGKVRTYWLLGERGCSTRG

B1: HOOC-(CH2)18-CO-(γGlu)-EKEKEKG-PEG24-EK-βAla-RSS[CFGKRIDRIGHYSGLGC]PSFRHGGKSSGAPPPS-NH2 (peptide)
peptide: EKXRSSCFGKRIDRIGHYSGLGCPSFRHGGKSSGAPPPS
modifications: N-terminus acylated with HOOC-(CH2)18-CO-(γGlu)-; PEG24 after EKEKEKG; βAla; thioacetal linkage between the two bracketed Cys; C-terminal amide
B2: Example 15 (peptide)
peptide: {C20 diacid}-[γGlu]EKEKEKGS[4Pal]RRSSCFGGRIDRIGAQSGLGCNSFR[4Pal]-NH2
modifications: disulfide 15-31
SMILES: CC[C@H](C)[C@@H]1NC(=O)[C@H](CCCNC(=N)N)NC(=O)[C@H](CC(=O)O)NC(=O)[C@H]([C@@H](C)CC)NC(=O)[C@H](CCCNC(=N)N)NC(=O)CNC(=O)CNC(=O)[C@H](Cc2ccccc2)NC(=O)[C@@H](NC(=O)[C@H](CO)NC(=O)[C@H](CO)NC(=O)[C@H](CCCNC(=N)N)NC(=O)[C@H](CCCNC(=N)N)NC(=O)[C@H](Cc2ccncc2)NC(=O)[C@H](CO)NC(=O)CNC(=O)[C@H](CCCCN)NC(=O)[C@H](CCC(=O)O)NC(=O)[C@H](CCCCN)NC(=O)[C@H](CCC(=O)O)NC(=O)[C@H](CCCCN)NC(=O)[C@H](CCC(=O)O)NC(=O)CC[C@H](NC(=O)CCCCCCCCCCCCCCCCCCC(=O)O)C(=O)O)CSSC[C@@H](C(=O)N[C@@H](CC(N)=O)C(=O)N[C@@H](CO)C(=O)N[C@@H](Cc2ccccc2)C(=O)N[C@@H](CCCNC(=N)N)C(=O)N[C@@H](Cc2ccncc2)C(N)=O)NC(=O)CNC(=O)[C@H](CC(C)C)NC(=O)CNC(=O)[C@H](CO)NC(=O)[C@H](CCC(N)=O)NC(=O)[C@H](C)NC(=O)CNC1=O
B3: Example 14 (peptide)
peptide: {C20 diacid}-[γGlu]EKEKEKGS[4Pal]RRSSCFGGRIDRIGA[4Pal]SGLGCNSFRY-NH2
modifications: disulfide 15-31
SMILES: CC[C@H](C)[C@@H]1NC(=O)[C@H](CCCNC(=N)N)NC(=O)[C@H](CC(=O)O)NC(=O)[C@H]([C@@H](C)CC)NC(=O)[C@H](CCCNC(=N)N)NC(=O)CNC(=O)CNC(=O)[C@H](Cc2ccccc2)NC(=O)[C@@H](NC(=O)[C@H](CO)NC(=O)[C@H](CO)NC(=O)[C@H](CCCNC(=N)N)NC(=O)[C@H](CCCNC(=N)N)NC(=O)[C@H](Cc2ccncc2)NC(=O)[C@H](CO)NC(=O)CNC(=O)[C@H](CCCCN)NC(=O)[C@H](CCC(=O)O)NC(=O)[C@H](CCCCN)NC(=O)[C@H](CCC(=O)O)NC(=O)[C@H](CCCCN)NC(=O)[C@H](CCC(=O)O)NC(=O)CC[C@H](NC(=O)CCCCCCCCCCCCCCCCCCC(=O)O)C(=O)O)CSSC[C@@H](C(=O)N[C@@H](CC(N)=O)C(=O)N[C@@H](CO)C(=O)N[C@@H](Cc2ccccc2)C(=O)N[C@@H](CCCNC(=N)N)C(=O)N[C@@H](Cc2ccc(O)cc2)C(N)=O)NC(=O)CNC(=O)[C@H](CC(C)C)NC(=O)CNC(=O)[C@H](CO)NC(=O)[C@H](Cc2ccncc2)NC(=O)[C@H](C)NC(=O)CNC1=O
B4: Example 20 (peptide)
peptide: {C20 diacid}-[γGlu]EKEKEKGS[4Pal]RRSSCFGGRIDRIGAQSGLGCPSFR[4Pal]-NH2
modifications: disulfide 15-31
SMILES: CC[C@H](C)[C@@H]1NC(=O)[C@H](CCCNC(=N)N)NC(=O)[C@H](CC(=O)O)NC(=O)[C@H]([C@@H](C)CC)NC(=O)[C@H](CCCNC(=N)N)NC(=O)CNC(=O)CNC(=O)[C@H](Cc2ccccc2)NC(=O)[C@@H](NC(=O)[C@H](CO)NC(=O)[C@H](CO)NC(=O)[C@H](CCCNC(=N)N)NC(=O)[C@H](CCCNC(=N)N)NC(=O)[C@H](Cc2ccncc2)NC(=O)[C@H](CO)NC(=O)CNC(=O)[C@H](CCCCN)NC(=O)[C@H](CCC(=O)O)NC(=O)[C@H](CCCCN)NC(=O)[C@H](CCC(=O)O)NC(=O)[C@H](CCCCN)NC(=O)[C@H](CCC(=O)O)NC(=O)CC[C@H](NC(=O)CCCCCCCCCCCCCCCCCCC(=O)O)C(=O)O)CSSC[C@@H](C(=O)N2CCC[C@H]2C(=O)N[C@@H](CO)C(=O)N[C@@H](Cc2ccccc2)C(=O)N[C@@H](CCCNC(=N)N)C(=O)N[C@@H](Cc2ccncc2)C(N)=O)NC(=O)CNC(=O)[C@H](CC(C)C)NC(=O)CNC(=O)[C@H](CO)NC(=O)[C@H](CCC(N)=O)NC(=O)[C@H](C)NC(=O)CNC1=O
B5: Example 18 (peptide)
peptide: {C20 diacid}-[γGlu]EKEKEKGSHRRSSCFGGRIDRIGAQSGLGCPSFRH-NH2
modifications: disulfide 15-31
SMILES: CC[C@H](C)[C@@H]1NC(=O)[C@H](CCCNC(=N)N)NC(=O)[C@H](CC(=O)O)NC(=O)[C@H]([C@@H](C)CC)NC(=O)[C@H](CCCNC(=N)N)NC(=O)CNC(=O)CNC(=O)[C@H](Cc2ccccc2)NC(=O)[C@@H](NC(=O)[C@H](CO)NC(=O)[C@H](CO)NC(=O)[C@H](CCCNC(=N)N)NC(=O)[C@H](CCCNC(=N)N)NC(=O)[C@H](Cc2c[nH]cn2)NC(=O)[C@H](CO)NC(=O)CNC(=O)[C@H](CCCCN)NC(=O)[C@H](CCC(=O)O)NC(=O)[C@H](CCCCN)NC(=O)[C@H](CCC(=O)O)NC(=O)[C@H](CCCCN)NC(=O)[C@H](CCC(=O)O)NC(=O)CC[C@H](NC(=O)CCCCCCCCCCCCCCCCCCC(=O)O)C(=O)O)CSSC[C@@H](C(=O)N2CCC[C@H]2C(=O)N[C@@H](CO)C(=O)N[C@@H](Cc2ccccc2)C(=O)N[C@@H](CCCNC(=N)N)C(=O)N[C@@H](Cc2c[nH]cn2)C(N)=O)NC(=O)CNC(=O)[C@H](CC(C)C)NC(=O)CNC(=O)[C@H](CO)NC(=O)[C@H](CCC(N)=O)NC(=O)[C@H](C)NC(=O)CNC1=O
B6: Example 16 (peptide)
peptide: {C20 diacid}-[γGlu]EKEKEKGSHRRSSCFHGRIDRIHAQSGLGCNSFRH-NH2
modifications: disulfide 15-31
SMILES: CC[C@H](C)[C@@H]1NC(=O)[C@H](CCCNC(=N)N)NC(=O)[C@H](CC(=O)O)NC(=O)[C@H]([C@@H](C)CC)NC(=O)[C@H](CCCNC(=N)N)NC(=O)CNC(=O)[C@H](Cc2c[nH]cn2)NC(=O)[C@H](Cc2ccccc2)NC(=O)[C@@H](NC(=O)[C@H](CO)NC(=O)[C@H](CO)NC(=O)[C@H](CCCNC(=N)N)NC(=O)[C@H](CCCNC(=N)N)NC(=O)[C@H](Cc2c[nH]cn2)NC(=O)[C@H](CO)NC(=O)CNC(=O)[C@H](CCCCN)NC(=O)[C@H](CCC(=O)O)NC(=O)[C@H](CCCCN)NC(=O)[C@H](CCC(=O)O)NC(=O)[C@H](CCCCN)NC(=O)[C@H](CCC(=O)O)NC(=O)CC[C@H](NC(=O)CCCCCCCCCCCCCCCCCCC(=O)O)C(=O)O)CSSC[C@@H](C(=O)N[C@@H](CC(N)=O)C(=O)N[C@@H](CO)C(=O)N[C@@H](Cc2ccccc2)C(=O)N[C@@H](CCCNC(=N)N)C(=O)N[C@@H](Cc2c[nH]cn2)C(N)=O)NC(=O)CNC(=O)[C@H](CC(C)C)NC(=O)CNC(=O)[C@H](CO)NC(=O)[C@H](CCC(N)=O)NC(=O)[C@H](C)NC(=O)[C@H](Cc2c[nH]cn2)NC1=O

target: T1, human NPRA; test: cell-based or functional assay

Row | Binder | cGMP Assay (EC50, pM) w/BSA, hNPRA [pM]
1 | B1 | 3490

target: T2, human NPRA; test: cell-based or functional assay

Row | Binder | cGMP Assay (EC50, pM) w/BSA [pM] | cGMP Assay (EC50, pM) w/Casein [pM]
2 | B2 | 57300 | 912
3 | B3 | 27700 | 685
4 | B4 | 129000 | 2900
5 | B5 | 17100 | 460
6 | B6 | 54700 | 807

target: T3, rat NPRA; test: cell-based or functional assay

Row | Binder | cGMP Assay (EC50, pM) w/BSA [pM] | cGMP Assay (EC50, pM) w/Casein [pM]
7 | B2 | 32600 | 254
8 | B3 | 37800 | 1170
9 | B4 | 104000 | 1390
10 | B5 | 43200 | 693
11 | B6 | 480000 | 4070
